Results published in patent publication US20240067728A1 (BIO THERA SOLUTIONS, published 2024).

Molecular target: T1, CD47-His antigen (human, UniProt Q08722 19-139)
T1 construct: Human CD47 ECD with C-terminal 8xHIS tag, expressed in HEK293F; also called hCD47-His; human CD47-His
Experiment: competitive ELISA, CD47-His coated, competitor SIRPα-Fc-Bio 0.1 µg/mL

T1 sequence (Q08722 other isoform, or with tags, fused parts or gaps limits assumed): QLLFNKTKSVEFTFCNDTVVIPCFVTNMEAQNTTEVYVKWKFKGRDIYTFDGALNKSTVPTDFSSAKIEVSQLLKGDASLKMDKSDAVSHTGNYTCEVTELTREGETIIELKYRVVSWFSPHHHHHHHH

B1: antibody L12-6 (antibody, human IgG1, kappa, V domains shown)
VH: QVQLQESGPGLVKPSETLSLTCTVSGGSLDNYYWSWIRQPPGKGLEWIGYIYYSGNTNYNPSLKSRVTISVDTSKNQFSLKLSSVTAADTAVYYCARGGRFLERYWGQGTLVTVSS
VL: EIVLTQSPSSLSASVGDRVTIPCRASLSIGSFLNWYQQRPGEAPKLLIFAASSLRSGVPSRFSGSGSGTDFTLTISGLQPEDFATYYCQQTYTTPYTFGQGTKVDIKR
notes: IgG1 complete anti-CD47 antibody
  IC50: 0.913 µg/mL

B2: antibody 3-6 (antibody, human IgG1, kappa, V domains shown)
VH: QVQLQESGPGLVKPSETLSLTCTVSGGSLDNYYWSWIRQPPGKGLEWIGYIYYSGNTNYNPSLKSRVTISVDTSKNQFSLRLRSVTAADTAVYYCARGGRIFAGYWGQGTLVTVSS
VL: DIQMTQSPSSVSASVGDRVTISCRANQAIGTWLAWYQQKPGKAPKLLIYAASTLQSGVPSRFSGSGSGTEFTLTISSLQAEDVAVYYCQQYYTTPLTFGGGTKLEIKR
notes: as for B1
  IC50: 1.12 µg/mL

B3: antibody 3-3 (antibody, human IgG1, kappa, V domains shown)
VH: QVQLQESGPGLVKPSETLSLTCTVSGGSLDNYYWSWIRQPPGKGLEWIGYIYYSGNTNYNPSLKSRVTISVDTSKNQFSLRLRSVTAADTAVYYCARGGRIFGGYWGQGTLVTVSS
VL: DIQMTQSPSSVSASVGDRVTISCRANQAIGTWLAWYQQKPGKAPKLLIYAASTLQSGVPSRFSGSGSGTEFTLTISSLQAEDVAVYYCQQYYTTPLTFGGGTKLEIKR
notes: as for B1
  IC50: 0.939 µg/mL

B4: antibody 24 (antibody, human IgG1, kappa, V domains shown)
VH: QVQLQESGPGLVKPSETLSLTCTVSGGSLDNYYWSWIRQPPGKGLEWIGRIYGDSATNYNPSLKSRVTISVDTSKNQFSLRLRSVTAADTAVYYCARGGRIFSGYWGQGTLVTVSS
VL: DIQMTQSPSSVSASVGDRVTISCRANQAIGTWLAWYQQKPGKAPKLLIYAASTLQSGVPSRFSGSGSGTEFTLTISSLQAEDVAVYYCQQYYTTPLTFGGGTKLEIKR
notes: as for B1
  IC50: 1.41 µg/mL

B5: antibody 16 (antibody, human IgG1, kappa, V domains shown)
VH: QVQLQESGPGLVKPSETLSLTCTVSGGSLDNYYWSWIRQPPGKGLEWIGYIYYSGNTNYNPSLKSRVTISVDTSKNQFSLRLRSVTAADTAVYYCARGGRIFSGYWGQGTLVTVSS
VL: DIQMTQSPSSVSASVGDRVTISCRANQAIGTWLAWYQQKPGKAPKLLIYAASTLQSGVPSRFSGSGSGTEFTLTISSLQAEDVAVYYCQQYYTTPLTFGGGTKLEIKR
notes: as for B1
  IC50: 0.975 µg/mL

B6: antibody 17 (antibody, human IgG1, kappa, V domains shown)
VH: QVQLQESGPGLVKPSETLSLTCTVSGGSLDNYYWSWIRQPPGKGLEWIGYIYYSGNTNYNPSLKSRVTISVDTSKNQFSLRLRSVTAADTAVYYCARGGRFLERYWGQGTLVTVSS
VL: DIQMTQSPSSVSASVGDRVTISCRANQAIGTWLAWYQQKPGKAPKLLIYAASTLQSGVPSRFSGSGSGTEFTLTISSLQAEDVAVYYCQQYYTTPLTFGGGTKLEIKR
notes: as for B1
  IC50: 0.795 µg/mL

B7: antibody 6 (antibody, human IgG1, kappa, V domains shown)
VH: QVQLQESGPGLVKPSETLSLTCTVSGGSLNDYYWSWIRQPPGKGLEWIGRIYGNGDTNYNPSLKSRVTISVDTSKNQFSLRLRSVTAADTAVYYCARGGRILAGYWGQGTLVTVSS
VL: DIQMTQSPSSVSASVGDRVTISCRANQAIGTWLAWYQQKPGKAPKLLIYAASTLQSGVPSRFSGSGSGTEFTLTISSLQAEDVAVYYCQQYYTTPLTFGGGTKLEIKR
notes: as for B1
  IC50: 1.1 µg/mL

B8: antibody 10 (antibody, human IgG1, kappa, V domains shown)
VH: QVQLQESGPGLVKPSETLSLTCTVSGGSLDNYYWSWIRQPPGKGLEWIGRIYYNGNTNYNPSLKSRVTISVDTSKNQFSLRLRSVTAADTAVYYCARGGRILAGYWGQGTLVTVSS
VL: DIQMTQSPSSVSASVGDRVTISCRANQAIGTWLAWYQQKPGKAPKLLIYAASTLQSGVPSRFSGSGSGTEFTLTISSLQAEDVAVYYCQQYYTTPLTFGGGTKLEIKR
notes: as for B1
  IC50: 1.06 µg/mL

B9: antibody 3 (antibody, human IgG1, kappa, V domains shown)
VH: QVQLQESGPGLVKPSETLSLTCTVSGGSLDGYYWSWIRQPPGKGLEWIGRIYGNSTTNYNPSLKSRVTISVDTSKNQFSLRLRSVTAADTAVYYCARGGRIFAGYWGQGTLVTVSS
VL: DIQMTQSPSSVSASVGDRVTISCRANQAIGTWLAWYQQKPGKAPKLLIYAASTLQSGVPSRFSGSGSGTEFTLTISSLQAEDVAVYYCQQYYTTPLTFGGGTKLEIKR
notes: as for B1
  IC50: 0.844 µg/mL
